In article PMC12595441, “Glycosaminoglycans activate peptidylarginine deiminase 4 by enhancing calcium affinity” (Proceedings of the National Academy of Sciences of the …, 2025):

Experiments:
[1] = target: heparin; experiment: SPR; settings: immobilized heparin
[2] = target: heparin; experiment: heparin activation assay with BAEE substrate, Hill equation fit (apparent KD); settings: 0.1 mM Ca2+
[3] = target: heparin; experiment: heparin column chromatography (Poros heparin), salt gradient; settings: gradient of 2 M NaCl; parent: est. 31 min; read off a plot
[4] = target: the molecule itself; experiment: SEC; analytical SEC in the presence of 5 µM heparin, Superdex 200 Increase 3.2/300, protein at 0.15 µM, 50 mM Tris pH 7.5, 300 mM NaCl, 0.1 mM CaCl2, 0.05% Tween20, 0.25 mM DTT; tryptophan fluorescence
[5] = target: the molecule itself; experiment: SEC; analytical SEC without heparin, Superdex 200 Increase 3.2/300, protein at 0.15 µM, 50 mM Tris pH 7.5, 300 mM NaCl, 0.1 mM CaCl2, 0.05% Tween20, 0.25 mM DTT; tryptophan fluorescence; compared with HMW calibration standards

Molecule	Kd [1]	koff [1]	kon (× 10^4 M^-1s^-1) [1]	Kd [2]	response [1]	other: peak elution time from heparin column [3]	stoichiometry N [4]	stoichiometry N [5]	binding result [4]
peptidylarginine deiminase 4 (PAD4), recombinant human, wild type (from UniProt Q9UM07) Y435A	16.6 nM	4.5 × 10^-4	2.8	13.3 nM	786 RU	–	–	–	–
PAD4^59/60/61/81/91 (K59S K60S K61S K81S K91S) (enzyme, human, UniProt Q9UM07 1-663, looked up, Full length human PAD4 (GenBank NM_012387) with K59S K60S K61S K81S K91S; source: E. coli BL21(DE3), purified (HisTrap FF, HiTrap Heparin HP, Superdex 200 SEC)) MAQGTLIRVTPEQPTHAVCVLGTLTQLDICSSAPEDCTSFSINASPGVVVDIAHGPPASSSSTGSSTWPLDPGVEVTLTMSVASGSTGDQSVQISYYGPKTPPVKALLYLTGVEISLCADITRTGKVKPTRAVKDQRTWTWGPCGQGAILLVNCDRDNLESSAMDCEDDEVLDSEDLQDMSLMTLSTKTPKDFFTNHTLVLHVARSEMDKVRVFQATRGKLSSKCSVVLGPKWPSHYLMVPGGKHNMDFYVEALAFPDTDFPGLITLTISLLDTSNLELPEAVVFQDSVVFRVAPWIMTPNTQPPQEVYACSIFENEDFLKSVTTLAMKAKCKLTICPEEENMDDQWMQDEMEIGYIQAPHKTLPVVFDSPRNRGLKEFPIKRVMGPDFGYVTRGPQTGGISGLDSFGNLEVSPPVTVRGKEYPLGRILFGDSCYPSNDSRQMHQALQDFLSAQQVQAPVKLYSDWLSVGHVDEFLSFVPAPDRKGFRLLLASPRSCYKLFQEQQNEGHGEALLFEGIKKKKQQKIKNILSNKTLREHNSFVERCIDWNRELLKRELGLAESDIIDIPQLFKLKEFSKAEAFFPNMVNMLVLGKHLGIPKPFGPVINGRCCLEEKVCSLLEPLGLQCTFINDFFTYHIRHGEVHCGTNVRRKPFSFKWWNMVP	–	–	–	–	–	–	≤ 4	4	–
PAD4^123/126/128 (R123S K126S K128S) (enzyme, human, UniProt Q9UM07 1-663, looked up, Full length human PAD4 (GenBank NM_012387) with R123S K126S K128S; source: E. coli BL21(DE3), purified (HisTrap FF, HiTrap Heparin HP, Superdex 200 SEC)) MAQGTLIRVTPEQPTHAVCVLGTLTQLDICSSAPEDCTSFSINASPGVVVDIAHGPPAKKKSTGSSTWPLDPGVEVTLTMKVASGSTGDQKVQISYYGPKTPPVKALLYLTGVEISLCADITSTGSVSPTRAVKDQRTWTWGPCGQGAILLVNCDRDNLESSAMDCEDDEVLDSEDLQDMSLMTLSTKTPKDFFTNHTLVLHVARSEMDKVRVFQATRGKLSSKCSVVLGPKWPSHYLMVPGGKHNMDFYVEALAFPDTDFPGLITLTISLLDTSNLELPEAVVFQDSVVFRVAPWIMTPNTQPPQEVYACSIFENEDFLKSVTTLAMKAKCKLTICPEEENMDDQWMQDEMEIGYIQAPHKTLPVVFDSPRNRGLKEFPIKRVMGPDFGYVTRGPQTGGISGLDSFGNLEVSPPVTVRGKEYPLGRILFGDSCYPSNDSRQMHQALQDFLSAQQVQAPVKLYSDWLSVGHVDEFLSFVPAPDRKGFRLLLASPRSCYKLFQEQQNEGHGEALLFEGIKKKKQQKIKNILSNKTLREHNSFVERCIDWNRELLKRELGLAESDIIDIPQLFKLKEFSKAEAFFPNMVNMLVLGKHLGIPKPFGPVINGRCCLEEKVCSLLEPLGLQCTFINDFFTYHIRHGEVHCGTNVRRKPFSFKWWNMVP	–	–	–	–	–	–	–	–	binds
PAD4^126/128/131/134/137 (K126S K128S R131S K134S R137S) (enzyme, human, UniProt Q9UM07 1-663, looked up, Full length human PAD4 (GenBank NM_012387) with K126S K128S R131S K134S R137S; source: E. coli BL21(DE3), purified (HisTrap FF, HiTrap Heparin HP, Superdex 200 SEC)) MAQGTLIRVTPEQPTHAVCVLGTLTQLDICSSAPEDCTSFSINASPGVVVDIAHGPPAKKKSTGSSTWPLDPGVEVTLTMKVASGSTGDQKVQISYYGPKTPPVKALLYLTGVEISLCADITRTGSVSPTSAVSDQSTWTWGPCGQGAILLVNCDRDNLESSAMDCEDDEVLDSEDLQDMSLMTLSTKTPKDFFTNHTLVLHVARSEMDKVRVFQATRGKLSSKCSVVLGPKWPSHYLMVPGGKHNMDFYVEALAFPDTDFPGLITLTISLLDTSNLELPEAVVFQDSVVFRVAPWIMTPNTQPPQEVYACSIFENEDFLKSVTTLAMKAKCKLTICPEEENMDDQWMQDEMEIGYIQAPHKTLPVVFDSPRNRGLKEFPIKRVMGPDFGYVTRGPQTGGISGLDSFGNLEVSPPVTVRGKEYPLGRILFGDSCYPSNDSRQMHQALQDFLSAQQVQAPVKLYSDWLSVGHVDEFLSFVPAPDRKGFRLLLASPRSCYKLFQEQQNEGHGEALLFEGIKKKKQQKIKNILSNKTLREHNSFVERCIDWNRELLKRELGLAESDIIDIPQLFKLKEFSKAEAFFPNMVNMLVLGKHLGIPKPFGPVINGRCCLEEKVCSLLEPLGLQCTFINDFFTYHIRHGEVHCGTNVRRKPFSFKWWNMVP	–	–	–	–	–	–	≤ 4	4	–

Second part, led by results:

Kd [1]	koff [1]	kon (× 10^4 M^-1s^-1) [1]	Kd [2]	response [1]	other: peak elution time from heparin column [3]	Molecule	stoichiometry N [4]	stoichiometry N [5]	binding result [4]
11.8 nM	6.7 × 10^-4	5.6	6.1 nM	–	–	peptidylarginine deiminase 4 (PAD4), recombinant human, wild type (from UniProt Q9UM07) K59S; K60S; K61S; K81S; K91S	–	–	–
13.5 nM	3.9 × 10^-4	3.1	7.5 nM	–	–	peptidylarginine deiminase 4 (PAD4), recombinant human, wild type (from UniProt Q9UM07) K126S; K128S; R131S; K134S; R137S	–	–	–
15.7 nM	4.2 × 10^-4	2.6	13.5 nM	659 RU	–	peptidylarginine deiminase 4 (PAD4), recombinant human, wild type (from UniProt Q9UM07) R8E	–	–	–
15.5 nM	4.5 × 10^-4	3	–	802 RU	–	peptidylarginine deiminase 4 (PAD4), recombinant human, wild type (from UniProt Q9UM07) R8E; Y435A	–	–	–
14.4 nM	4.6 × 10^-4	3	6.2 nM	328 RU	29 min	peptidylarginine deiminase 4 (PAD4), recombinant human, wild type (from UniProt Q9UM07) R123S; K126S; K128S	–	–	–
